The results in this text go back to article PMC7060200, “Selective Binding of HSC70 and its Co-Chaperones to Structural Hotspots on CFTR” (Scientific Reports, 2020).

In the test the target is T1, HSC70 (Homo sapiens, UniProt P11142).
T1 construct: made in house
Briefly: ELISA binding of HSC70 to immobilized CFTR NBD1 and competition by soluble peptides. Particulars: immobilized NBD1 incubated at 30 °C, direct comparison with immobilized 1097-L; n = 3, p < 0.01. How it is done: HSC70, DJA1 and DJA2 were purified as His-tagged proteins, as described. HSC70 was also amplified by PCR with an N-terminal FLAG tag, inserted into pPROEXHTa (Invitrogen) and purified as described. HSC70 was stored in 100 mM KOAc, 20 mM HEPES-KOH pH 7.5, 5 mM MgOAC2 (buffer G), DJA1 and DJA2 in 500 mM NaCl, 20 mM HEPES-KOH pH 7.5, 5 mM MgOAC2 (buffer H). Avi-tagged CFTR NBD1 was purified as described.
For NBD1 binding, 100 nM of strep-tagged NBD1 in 100 µl of 150 mM NaCl, 50 mM Na2HPO4 pH 7.5, 1 mM ATP, and 40 µM DTT (buffer N), was bound to streptavidin plates for 1 hour at 4 °C with agitation. Plates were washed with PBST and incubated in buffer N at 30 °C in a water bath for 5 min. Then, plates were blocked in PBST containing 0.5% BSA, followed by the addition of HSC70 binding reactions, and detection as above.
On the technique in general: In an ELISA, binding on a coated surface is turned into a signal by an enzyme label.

T1 sequence (P11142 whole entry): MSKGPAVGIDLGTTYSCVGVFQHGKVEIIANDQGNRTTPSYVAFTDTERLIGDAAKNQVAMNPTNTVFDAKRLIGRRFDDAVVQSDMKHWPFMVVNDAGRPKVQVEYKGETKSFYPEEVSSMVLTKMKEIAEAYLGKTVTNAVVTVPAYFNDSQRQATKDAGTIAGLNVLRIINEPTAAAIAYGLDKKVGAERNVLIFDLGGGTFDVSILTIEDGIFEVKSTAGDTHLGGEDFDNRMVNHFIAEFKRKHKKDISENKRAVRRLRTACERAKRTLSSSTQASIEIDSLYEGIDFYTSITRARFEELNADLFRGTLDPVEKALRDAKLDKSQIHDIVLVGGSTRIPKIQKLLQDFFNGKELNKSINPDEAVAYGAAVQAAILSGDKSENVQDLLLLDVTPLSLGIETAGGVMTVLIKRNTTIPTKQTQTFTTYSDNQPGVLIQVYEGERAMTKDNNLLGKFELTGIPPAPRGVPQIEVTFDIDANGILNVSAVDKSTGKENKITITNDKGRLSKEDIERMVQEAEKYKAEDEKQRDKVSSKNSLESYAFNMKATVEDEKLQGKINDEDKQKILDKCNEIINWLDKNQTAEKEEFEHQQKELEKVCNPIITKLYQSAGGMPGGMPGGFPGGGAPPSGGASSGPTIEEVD

B1: NBD1: Avi-tagged CFTR NBD1, purified and immobilized on streptavidin plates (protein)
chain: TTEVVMENVTAFWEEGFGELFEKAKQNNNNRKTSNGDDSLFFSNFSLLGTPVLKDINFKIERGQLLAVAGSTGAGKTSLLMVIMGELEPSEGKIKHSGRISFCSQFSWIMPGTIKENIIFGVSYDEYRYRSVIKACQLEEDISKFAEKDNIVLGEGGITLSGGQRARISLARAVYKDADLYLLDSPFGYLDVLTEKEIFESCVCKLMANKTRILVTSKMEHLKKADKILILHEGSSYFYGTFSELQNLQPDFSSKLMGCDSFDQFSAERRNSILTETLHRFSLEGDAPVS
modifications: left off: Avi-tag, end not stated, kept
notes: Avi-tagged CFTR NBD1, purified and immobilized on streptavidin plates
In the case of B1, the “HSC70 binding to NBD1 relative to that observed for 1097-L” value is reported as 73 ± 3%.
